Test results reported in patent publication US20230235059A1 (SORRENTO THERAPEUTICS, published 2023).

How the values were obtained:
[1] = target: T1, Recombinant mouse PD-1-His (Sino Biological catalog #50124-M08H) (mouse, UniProt Q02242 25-167); test: SPR (BIACORE), antibody captured on anti-human Fc, PD-1-His as analyte
T1 construct: Bought protein; also called mouse PD-1 antigen; not shown: His tag
T1 sequence: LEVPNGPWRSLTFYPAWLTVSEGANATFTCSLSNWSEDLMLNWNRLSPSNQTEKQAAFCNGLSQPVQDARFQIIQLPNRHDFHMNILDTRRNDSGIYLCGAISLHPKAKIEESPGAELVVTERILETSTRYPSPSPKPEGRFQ
Procedure: (§1) Binding kinetics of anti-PD1 antibodies with PD-1 proteins from different species was measured using surface plasmon resonance (SPR). […] The PD-1 proteins from human (catalog #10377-H08H-B), cynomolgus monkey (catalog #90311-C08H), rhesus monkey (catalog #90305-K08H), and mouse (catalog #50124-M08H) were obtained from Sino Biological. Anti-human fragment crystallizable region (Fc region) antibody was immobilized on a CMS sensor chip to approximately 8,000 RU using standard N-hydroxysuccinimide/N-Ethyl-N′-(3-dimethylaminopropyl) carbodiimide hydrochloride (NHS/EDC) coupling methodology. […] Recombinant human, cyno, rhesus and mouse PD-1-His were serially diluted in a running buffer of 0.01 M HEPES pH 7.4, 0.15 M NaCl, 3 mM EDTA, 0.05% v/v Surfactant P20 (HBS-EP+). All measurements were conducted in HBS-EP+ buffer with a flow rate of 30 μL/minute. A 1:1 (Langmuir) binding model was used to fit the data. All BIACORE assays were performed at room temperature.

[2] = target: T2, Recombinant cynomolgus monkey PD-1-His (Sino Biological catalog #90311-C08H) (cynomolgus monkey, UniProt Q15116 25-167 (human entry)); test: as above
T2 construct: Bought protein; also called cyno PD-1-His; cynomolgus monkey PD-1 antigen; not shown: His tag
T2 chain: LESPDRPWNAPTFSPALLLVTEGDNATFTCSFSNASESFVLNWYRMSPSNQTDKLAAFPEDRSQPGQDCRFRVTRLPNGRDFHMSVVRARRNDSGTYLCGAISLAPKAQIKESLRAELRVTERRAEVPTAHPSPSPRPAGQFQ
Procedure: as §1

[3] = target: T3, Recombinant rhesus monkey PD-1-His (Sino Biological catalog #90305-K08H) (rhesus monkey); test: as above
T3 construct: Bought protein; also called rhesus PD-1-His; rhesus monkey PD-1 antigen; not shown: His tag
T3 chain: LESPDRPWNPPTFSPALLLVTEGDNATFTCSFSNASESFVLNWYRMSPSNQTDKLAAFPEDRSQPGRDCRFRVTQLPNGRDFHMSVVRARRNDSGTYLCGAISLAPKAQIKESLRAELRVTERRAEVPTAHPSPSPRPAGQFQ
Procedure: as §1

[4] = target: PD-1 in the Promega PD1/PD-L1 blockade reporter bioassay (Cat. No. J1250) (human, UniProt Q15116 25-288); test: cell-based or functional assay
Chain of PD-1 in the Promega PD1/PD-L1 blockade reporter bioassay (Cat. No. J1250) (Q15116 25-288 limits assumed): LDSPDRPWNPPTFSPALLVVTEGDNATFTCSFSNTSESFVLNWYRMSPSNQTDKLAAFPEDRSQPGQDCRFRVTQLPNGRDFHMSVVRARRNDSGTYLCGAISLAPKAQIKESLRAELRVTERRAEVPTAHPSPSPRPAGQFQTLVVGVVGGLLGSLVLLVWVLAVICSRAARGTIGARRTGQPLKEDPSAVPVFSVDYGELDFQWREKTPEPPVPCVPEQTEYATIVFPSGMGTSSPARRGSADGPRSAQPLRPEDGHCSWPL

B1: HPD-BB9 (antibody, V domains shown)
VH: QVQLVQSGAEVKKPGASVKVSCKASGFRLTTNGISWVRQAPGQGLEWMGWISAGGGPTNYAQKLQGRVTMTTDTSTSTAYMELRSLRSDDTAVYYCAKGLYGTKDAWGQGTLVTVSS
VL: QSVLTQPPSVSEVPGQRVTISCSGGGSNIGSNAVNWYQHFPGKAPKLLIYYNDLLPSGVSDRFSASKSGTSASLAISGLRSEDEADYYCAAWDDNLSAYVFATGTKVTVL
notes: also called HDP-BB9; anti-PD1 clone HPD-BB9
binding result [1]: binds
binding result [2]: binds
binding result [3]: binds
EC50 of fold induction of Relative Light Units (RLU), PD1/PD-L1 blockade reporter bioassay [4]: 0.493 µg/mL
